B1: IgG1-F1125 (antibody)
heavy: QVQLQESGPGLVKPSETLSLTCAVSGHSISHDHAWSWVRQPPGEGLEWIGFISYSGITNYNPSLQGRVTISRDNSKNTLYLQMNSLRAEDTAVYYCARSLARTTAMDYWGEGTLVTVSSASTKGPSVFPLAPSSKSTSGGTAALGCLVKDYFPEPVTVSWNSGALTSGVHTFPAVLQSSGLYSLSSVVTVPSSSLGTQTYICNVNHKPSNTKVDKKVEPKSCDKTHTCPPCPAPELLGGPSVFLFPPKPKDTLYISRTPEVTCVVVDVSHEDPEVKFNWYVDGVEVHNAKTKPREEQYNSTYRVVSVLQVLHQDWLNGKEYKCKVSNKALPAPIEKTISKAKGQPREPQVYTLPPSRDELTKNQVSLTCLVKGFYPSDIAVEWESNGQPENNYKTTPPVLDSDGSFFLYSKLTVDKSRWQQGNVFSCSVMHEALHYHVTQKSLSLSP
light: not shown
notes: VH3-IgG1 with Fc substitutions (EU numbering) + L(WT)-CK
B2: IgG1-F1103 (antibody)
heavy: B1 heavy with S241D, Q313A, K328D, L330Y, V438Y
light: not shown
notes: as for B1
B3: IgG1-F1104 (antibody)
heavy: B1 heavy with Q309T, V424E, S426R
light: not shown
notes: as for B1
B4: IgG1-F1102 (antibody)
heavy: B1 heavy with Q313A, K328D, L330Y, V438Y
light: not shown
notes: as for B1
B5: IgG1-F1066 (antibody)
heavy: B1 heavy with Q309T, V424S
light: not shown
notes: as for B1
B6: IgG1-F1114 (antibody)
heavy: B1 heavy with Q309T, S442Q
light: not shown
notes: as for B1
B7: IgG1-F1109 (antibody)
heavy: B1 heavy with Q309T, V424T
light: not shown
notes: as for B1
B8: IgG1-F1060 (antibody)
heavy: B1 heavy with Q309T, Q388S
light: not shown
notes: as for B1
B9: IgG1-F1063 (antibody)
heavy: B1 heavy with Q309T, P389S
light: not shown
notes: as for B1
B10: IgG1-F1064 (antibody)
heavy: B1 heavy with Q309T, V424E
light: not shown
notes: as for B1
B11: IgG1-F1099 (antibody)
heavy: B1 heavy with Q309T, K328D, L330Y, V438Y
light: not shown
notes: as for B1
B12: IgG1-F1058 (antibody)
heavy: B1 heavy with Q309T, Q388E
light: not shown
notes: as for B1
B13: IgG1-F1074 (antibody)
heavy: B1 heavy with S241D, Q309T
light: not shown
notes: as for B1
B14: IgG1-F1061 (antibody)
heavy: B1 heavy with Q309T, P389E
light: not shown
notes: as for B1
B15: IgG1-F1073 (antibody)
heavy: B1 heavy with Q309T, S442R
light: not shown
notes: as for B1
B16: IgG1-F1077 (antibody)
heavy: B1 heavy with K250N, Q309T, V438Y
light: not shown
notes: as for B1
B17: IgG1-F1097 (antibody)
heavy: B1 heavy with Q309T, G387N, P389S, V438Y
light: not shown
notes: as for B1
B18: IgG1-F1079 (antibody)
heavy: B1 heavy with Q309T, E384N, N386S, V438Y
light: not shown
notes: as for B1
B19: IgG1-F1076 (antibody)
heavy: B1 heavy with S241D, Q309T, K328D, L330Y
light: not shown
notes: as for B1
B20: IgG1-F1082 (antibody)
heavy: B1 heavy with Q309T, V438Y, Q440N
light: not shown
notes: as for B1
B21: IgG1-F1065 (antibody)
heavy: B1 heavy with Q309T, V424R
light: not shown
notes: as for B1
B22: IgG1-F1107 (antibody)
heavy: B1 heavy with Q309T, V424D
light: not shown
notes: as for B1
B23: IgG1-F1112 (antibody)
heavy: B1 heavy with Q309T, Q440K
light: not shown
notes: as for B1
B24: IgG1-F1098 (antibody)
heavy: B1 heavy with S241D, Q309T, V438Y
light: not shown
notes: as for B1
B25: IgG1-F1106 (antibody)
heavy: B1 heavy with Q309T, Q440R, S442E
light: not shown
notes: as for B1
B26: IgG1-F1096 (antibody)
heavy: B1 heavy with Q309T, Q388T, V438Y
light: not shown
notes: as for B1
B27: IgG1-F1115 (antibody)
heavy: B1 heavy with Q309T, S426N
light: not shown
notes: as for B1
B28: IgG1-F1068 (antibody)
heavy: B1 heavy with Q309T, S426R
light: not shown
notes: as for B1
B29: IgG1-F1111 (antibody)
heavy: B1 heavy with Q309T, S426K
light: not shown
notes: as for B1
B30: IgG1-F1083 (antibody)
heavy: B1 heavy with Q309T, V438Y, S442N
light: not shown
notes: as for B1
B31: IgG1-F1110 (antibody)
heavy: B1 heavy with Q309T, V424Q
light: not shown
notes: as for B1
B32: IgG1-F1108 (antibody)
heavy: B1 heavy with Q309T, V424K
light: not shown
notes: as for B1
B33: IgG1-F1059 (antibody)
heavy: B1 heavy with Q309T, Q388R
light: not shown
notes: as for B1
B34: IgG1-F1070 (antibody)
heavy: B1 heavy with Q309T, Q440R
light: not shown
notes: as for B1
B35: IgG1-F1095 (antibody)
heavy: B1 heavy with Q309T, S385N, G387S, V438Y
light: not shown
notes: as for B1
B36: IgG1-F1067 (antibody)
heavy: B1 heavy with Q309T, S426E
light: not shown
notes: as for B1
B37: IgG1-F1113 (antibody)
heavy: B1 heavy with Q309T, S442D
light: not shown
notes: as for B1
B38: IgG1-F1069 (antibody)
heavy: B1 heavy with Q309T, Q440E
light: not shown
notes: as for B1
B39: IgG1-F1105 (antibody)
heavy: B1 heavy with Q309T, V424S, S426R
light: not shown
notes: as for B1
B40: IgG1-F1101 (antibody)
heavy: B1 heavy with S241D, Q313A, V438Y
light: not shown
notes: as for B1
B41: IgG1-F1080 (antibody)
heavy: B1 heavy with Q309T, S426N, V438Y
light: not shown
notes: as for B1
B42: IgG1-F1100 (antibody)
heavy: B1 heavy with S241D, Q309T, K328D, L330Y, V438Y
light: not shown
notes: as for B1
B43: IgG1-F1072 (antibody)
heavy: B1 heavy with Q309T, S442E
light: not shown
notes: as for B1
B44: IgG1-F1071 (antibody)
heavy: B1 heavy with Q309T, Q440S
light: not shown
notes: as for B1
B45: IgG1-F1344 (antibody)
heavy: B1 heavy with L237R, S241K, Q309T, V438T, Q440K, S442E
light: not shown
notes: EU numbering; copies: 2 + 2
B46: IgG1-F1351 (antibody)
heavy: B1 heavy with L237R, S241K, Q309T, V438F, Q440R, S442E
light: not shown
notes: EU numbering; copies: 2 + 2
B47: IgG1-F1349 (antibody)
heavy: B1 heavy with L237R, S241K, Q309T, V438T, Q440R, S442E
light: not shown
notes: EU numbering; copies: 2 + 2
B48: IgG1-F1348 (antibody)
heavy: B1 heavy with L237R, G238R, S241K, S256T, T258E, Q309T, Q440K, S442E
light: not shown
notes: EU numbering; copies: 2 + 2
B49: IgG1-F1346 (antibody)
heavy: B1 heavy with L237R, G238R, S241K, S256T, Q309T, Q440K, S442E
light: not shown
notes: EU numbering; copies: 2 + 2
B50: IgG1-F1352 (antibody)
heavy: B1 heavy with L237R, S241K, Q309T, H435D, V438T, Q440K, S442E
light: not shown
notes: EU numbering; copies: 2 + 2
B51: IgG1-F1347 (antibody)
heavy: B1 heavy with L237R, G238R, S241K, T258E, Q309T, Q440K, S442E
light: not shown
notes: EU numbering; copies: 2 + 2
B52: IgG1-F1350 (antibody)
heavy: B1 heavy with L237R, S241K, Q309T, V438F, Q440K, S442E
light: not shown
notes: EU numbering; copies: 2 + 2
B53: IgG1-F1345 (antibody)
heavy: B1 heavy with L237R, G238R, S241K, Q309T, Q440K, S442E
light: not shown
notes: EU numbering; copies: 2 + 2

Numbering of substitutions follows the chain as printed.

One may read the Kd as the concentration at which binding is half-saturated. Low readings indicate tighter binding, high ones weaker binding.

T2 sequence (P55899 24-297 limits assumed, chain 1 of 2): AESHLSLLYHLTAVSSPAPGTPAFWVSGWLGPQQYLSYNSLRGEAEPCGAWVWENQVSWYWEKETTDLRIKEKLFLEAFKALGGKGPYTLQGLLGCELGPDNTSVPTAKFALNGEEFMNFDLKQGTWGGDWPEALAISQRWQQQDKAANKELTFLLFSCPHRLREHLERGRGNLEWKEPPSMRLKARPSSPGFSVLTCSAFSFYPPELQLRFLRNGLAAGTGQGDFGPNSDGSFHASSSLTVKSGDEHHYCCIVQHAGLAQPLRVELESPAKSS
T2 sequence (P61769 21-119 limits assumed, chain 2 of 2): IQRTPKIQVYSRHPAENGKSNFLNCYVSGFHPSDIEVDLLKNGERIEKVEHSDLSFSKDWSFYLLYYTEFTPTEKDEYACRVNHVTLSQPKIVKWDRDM

The target in the first test is T1, soluble human FcRn (heterodimer of FcRn alpha chain and beta2-microglobulin) (human, UniProt P55899 24-297; P61769 21-119).
T1 construct: Expressed in HEK293H and purified on IgG Sepharose; also called hFcRn
T1 sequence (P55899 24-297 limits assumed, chain 1 of 2): as the sequence (P55899 24-297 limits assumed, chain 1 of 2) above
T1 sequence (P61769 21-119 limits assumed, chain 2 of 2): as the sequence (P61769 21-119 limits assumed, chain 2 of 2) above
Briefly: SPR Biacore T100, antibody captured via protein L, hFcRn analyte, pH 7.0, 25 C.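 Note: KD derived from kinetic ka and kd fits of sensorgrams, CM4 sensor chip, sodium phosphate NaCl Tween20 running buffer, buffer-only injection used as reference.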
Procedure: An appropriate amount of protein L (ACTIGEN) was immobilized onto Sensor chip CM4 (GE Healthcare) by the amino coupling method, and the chip was allowed to capture an antibody of interest. Then, diluted FcRn solutions and running buffer (as a reference solution) were injected to allow human FcRn to interact with the antibody captured on the sensor chip. The running buffer used comprised 50 mmol/l sodium phosphate, 150 mmol/l NaCl, and 0.05% (w/v) Tween20 (pH 7.0). FcRn was diluted using each buffer. The chip was regenerated using 10 mmol/l glycine-HCl (pH 1.5). Assays were carried out exclusively at 25 degrees C. The association rate constant ka (1/Ms) and dissociation rate constant kd (1/s), both of which are kinetic parameters, were calculated based on the sensorgrams obtained in the assays, and KD (M) of each antibody for human FcRn was determined from these values. Each parameter was calculated using Biacore T100 Evaluation Software (GE Healthcare).
In turn, B1 displayed a Kd of 52 nM. In turn, B2 had a Kd of 61 nM. The Kd values of the last two molecules are within 1.5-fold of each other. In the case of B3, the Kd is 180 nM. Regarding B4, binding was characterised by a dissociation constant (Kd) of 65 nM. This Kd is about 2.8-fold lower than that of the molecule before.

In the case of B5, the Kd came out at 140 nM.

In turn, B6 came in with a Kd of 130 nM. The Kd values of the last two molecules are within 1.5-fold of each other.

The molecule B7 had a Kd of 130 nM. Same read-out and setting: to B8 belongs 140 nM; to B9, 140 nM; to B10, 130 nM.

On to B11, for which the affinity, expressed as Kd, was 260 nM. B12 had a Kd of 130 nM. Same read-out and setting: the result for B13 reads 130 nM; that for B14, 120 nM; that for B15, 130 nM. B16 came in with a Kd of 2000 nM. Regarding B17, the Kd is 280 nM. Consider B18, for which binding was put at a Kd of 340 nM.

B19: the Kd was 130 nM. The same measure, in the same setting: to B20 belongs 280 nM. Same read-out and setting: to B21 belongs 140 nM; to B22, 120 nM; to B23, 120 nM. On to B24, for which binding was put at a Kd of 260 nM. This Kd is about 2.2-fold higher than that of the molecule before. Molecule B25 came in with a Kd of 140 nM. Same read-out and setting: the result for B26 reads 270 nM; that for B27, 130 nM. B28 returned a Kd of 170 nM. On the same count and under the same terms, to B29 belongs 160 nM; to B30, 350 nM; to B31, 130 nM.

B32: the Kd amounted to 130 nM. This lies in the sub-micromolar range.

As to B33, the Kd is 140 nM. The Kd values of the last two molecules are within 1.5-fold of each other.

In turn, B34 yielded a Kd of 170 nM.

On to B35, for which the affinity, expressed as Kd, was 290 nM. Still for that read-out and setting: to B36 belongs 130 nM; to B37, 120 nM.

For the molecule B38, binding was characterised by a dissociation constant (Kd) of 140 nM.

The molecule B39 displayed a Kd of 150 nM.

B40: the affinity, expressed as Kd, was 66 nM. Regarding B41, binding was put at a Kd of 320 nM. Take B42: the Kd worked out at 240 nM.

On to B43, for which binding was put at a Kd of 130 nM. This Kd lies about 1.8-fold lower than the previous one. With B44, the Kd stood at 120 nM.

Another test has as its target T2, soluble human FcRn (human, UniProt P55899 24-297; P61769 21-119).
T2 construct: Heterodimer of FcRn alpha chain and beta2-microglobulin; also called hFcRn
As to the kind of experiment: SPR (Biacore T100), antibody captured by protein L, hFcRn as analyte, pH 7.0, 25 C. (In SPR one partner is held on a chip, and binding of the other changes the refractive index at the surface.)
Turning to B45, binding was put at a Kd of 400 nM.

In the case of B46, the affinity, expressed as Kd, was 160 nM. Still for that read-out and setting: the result for B47 reads 340 nM; that for B48, 55 nM. Same read-out and setting: to B49 belongs 86 nM; to B50, 390 nM. B51 displayed a Kd of 71 nM.

B52 yielded a Kd of 120 nM. Still for that read-out and setting: the result for B53 reads 100 nM.

These data come from patent US20140363428A1 (Chugai, published 2014).
